The source of these data is article PMC9097459.

The target of test [1] is FlSp NTTrp (Phe 11 to Trp mutant of FlSp NT) (Nephila clavipes). Nature of the test: SEC; Superdex 75 Increase 10/300 GL, 200 μl of 2 mg/ml protein, 20 mM MES, 154 mM NaCl, 1 mM EDTA, pH 5.5; apparent MW from calibrants; monomer to dimer.
Test [2] has as its target FlSp NT_(E79QE84QE119Q) (Nephila clavipes). Nature of the test: SEC-MALS; Superdex 75 Increase 10/300 GL, 50 μg loaded, 20 mM MES, 150 mM NaCl, 1 mM EDTA, pH 5.5, room temperature; monomer to dimer.
Test [3] addresses WT FlSp NT (N-terminal domain of flagelliform spidroin from Nephila clavipes) (Nephila clavipes). Briefly: SEC; Superdex 75 Increase 10/300 GL, 200 μl of 2 mg/ml protein, 20 mM MES, 154 mM NaCl, 1 mM EDTA, pH 5.5; apparent MW from calibrants; monomer to dimer.
Test [4] shares this target. Briefly: SEC-MALS; Superdex 75 Increase 10/300 GL, 50 μg loaded, 20 mM MES, 150 mM NaCl, 1 mM EDTA, pH 5.5, room temperature; monomer to dimer.
The target in test [5] is FlSp NT* (constitutive monomer mutant, Asp 41 and Lys 65 swapped). Nature of the test: SEC-MALS. Particulars: Superdex 75 increase SEC column.
A further test addresses FlSp NT_(E79QE84QE119Q). Briefly: SEC-MALS. The settings on record: Superdex 75 increase SEC column.
The target in test [6] is T1, FlSp NT_(E79QE84QE119QE130Q).
T1 chain: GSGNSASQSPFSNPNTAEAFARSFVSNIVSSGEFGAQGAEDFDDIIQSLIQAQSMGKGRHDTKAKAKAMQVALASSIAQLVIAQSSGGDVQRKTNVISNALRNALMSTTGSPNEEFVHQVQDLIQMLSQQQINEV
Nature of the test: SEC-MALS. Particulars: chain shown with the change, Superdex 75 increase SEC column.

Where [7] appears, read: pH 5.5 versus pH 8.0, parent: 2.0.

Regarding “FlSp NTTrp (Phe 11 to Trp mutant of FlSp NT) (domain or fragment)”, the apparent MW ratio between pH 5.5 and 8.0 in test [1] was determined as 1.2.
Consider “FlSp NT_(E79QE84QE119Q) (domain or fragment)”, for which, in test [2], the MW ratio between pH 5.5 and 8.0 is 1.7.
As to “WT FlSp NT (N-terminal domain of flagelliform spidroin from Nephila clavipes) (domain or fragment)”, the apparent MW ratio between dimer (pH 5.5) and monomer (pH 8.0) in test [3] amounted to 1.3. In addition, the stoichiometry N in test [4] was 2.
On to “WT FlSp NT (N-terminal domain of flagelliform spidroin from Nephila clavipes) D41K; K65D”, for which the other: molecular mass by SEC-MALS in test [5] (pH 5.5, parent: 26.0) was found to be 13.4 kDa; in test [5] (pH 8.0, parent: 13.1), 14.1 kDa. Also, the other: MW ratio between pH 5.5 and pH 8.0 in test [5] (setting [7]) stood at 1.
Turning to “WT FlSp NT (N-terminal domain of flagelliform spidroin from Nephila clavipes) E79Q; E84Q; E119Q”, the other: molecular mass by SEC-MALS in the test with FlSp NT_(E79QE84QE119Q) (pH 5.5, parent: 26.0) came to 24.4 kDa; with FlSp NT_(E79QE84QE119Q) (pH 8.0, parent: 13.1), 14.3 kDa.

B1: WT FlSp NT (N-terminal domain of flagelliform spidroin from Nephila clavipes) E79Q; E84Q; E119Q; E130Q (protein)
chain: T1 chain
With B1, the other: molecular mass by SEC-MALS in test [6] (pH 5.5, parent: 26.0) stood at 20.7 kDa; in test [6] (pH 8.0, parent: 13.1) it was 13.1 kDa. The other: MW ratio between pH 5.5 and pH 8.0 in test [6] (setting [7]) is 1.6.
